Source: article PMC9492657, “Metabolic pathway assembly using docking domains from type I cis-AT polyketide synthases” (Nature Communications, 2022)

Assays:
[1] = biological target: D3 NDD-His-tag (N-terminal docking domain of DEBS2, 6-deoxyerythronolide B synthase) (UniProt Q03132); assay: BLI; GatorPrime; NDD-His-tag (100 ug/mL in PBS) immobilised on a Ni-NTA biosensor; CDD in solution at variable concentrations in 1x kinetic buffer (PBS pH 7.4, 0.1% BSA, 0.05% Tween 20); 1:1 global model; three repeats
[2] = biological target: D5 NDD-His-tag, biotinylated (N-terminal docking domain of DEBS3, 6-deoxyerythronolide B synthase) (UniProt Q03133); assay: BLI; Octet RED96E; biotinylated D5 NDD (100 ug/mL in PBS) immobilised on a streptavidin (SA) biosensor; CDD in solution at variable concentrations in 1x kinetic buffer (PBS pH 7.4, 0.1% BSA, 0.05% Tween 20); 1:1 global model; three repeats
[3] = biological target: T1, R5 NDD-His-tag (N-terminal docking domain of RapB, rapamycin polyketide synthase) (Streptomyces rapamycinicus); assay: BLI; GatorPrime; NDD-His-tag (100 ug/mL in PBS) immobilised on a Ni-NTA biosensor; CDD in solution at variable concentrations in 1x kinetic buffer (PBS pH 7.4, 0.1% BSA, 0.05% Tween 20); 1:1 global model; three repeats; conditions: both partners purified
T1 chain: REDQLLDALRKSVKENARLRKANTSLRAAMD

“Flag-tag-D2 CDD (C-terminal docking domain of DEBS1, 6-deoxyerythronolide B synthase) (from UniProt Q03131 1-3491) (domain or fragment)” was tested, and the Kd [1] was 14.6 µM.

In the case of “Flag-tag-D4 CDD (C-terminal docking domain of DEBS2, 6-deoxyerythronolide B synthase) (from UniProt Q03132 1-3567) (domain or fragment)”, the Kd [2] is reported as 280 nM.

B1: Flag-tag-R4 CDD (C-terminal docking domain of RapA, rapamycin polyketide synthase) (domain or fragment)
chain: FAPAEPEPRLHEQELRRALAGISIDKFREAGVLDTLLRLAAMEGLAVPKPDSESDDEAFVDEMDADALIKHVLEEER
In the case of B1, the Kd [3] is reported as 340 ± 30 nM.
